Experimental data as given in patent publication US20200199241A1 (Chugai, published 2020).
Residue numbers refer to the chain shown, from its start. Names and notes keep the numbering of the source. One block for each binder: values may come before it.

Assays:
FcγRIIb [1] = target: T1, FcγRIIb (human, UniProt P31994 43-217, limits assumed); experiment: SPR (Biacore); KD for FcγRIIaR divided by KD for FcγRIIb of the same antibody
T1 construct: also called FcgRIIb; FcγIIB
T1 sequence: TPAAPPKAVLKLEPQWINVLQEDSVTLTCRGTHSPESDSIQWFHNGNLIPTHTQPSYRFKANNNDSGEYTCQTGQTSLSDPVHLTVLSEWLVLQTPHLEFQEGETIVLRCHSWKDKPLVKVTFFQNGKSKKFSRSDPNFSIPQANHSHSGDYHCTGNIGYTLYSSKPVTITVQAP

FcγRIIb [2] = target: T1, FcγRIIb; experiment: SPR (Biacore), bound amount, IL6R-BF648/IL6R-L = 100
FcγRIIa type H [3] = target: T2, FcγRIIa type H (human, UniProt P12318 36-217); experiment: as above
T2 construct: also called FcγRIIaH; FcγRIIH
T2 sequence: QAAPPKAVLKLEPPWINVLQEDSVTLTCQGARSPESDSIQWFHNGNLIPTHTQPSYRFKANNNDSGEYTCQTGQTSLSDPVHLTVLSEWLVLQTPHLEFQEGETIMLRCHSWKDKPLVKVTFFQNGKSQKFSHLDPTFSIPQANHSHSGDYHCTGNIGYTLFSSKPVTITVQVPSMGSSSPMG

FcγRIIIa type V [4] = target: T3, FcγRIIIa type V (human, UniProt P08637 17-208, limits assumed); experiment: as above
T3 construct: also called FcγRIIIaV; FcgRIIIaV

FcγRIa [5] = target: T4, FcγRIa (human, UniProt P12314 16-292, limits assumed); experiment: as above
T4 construct: also called FcgRIa; CD64

FcγRIIb [6] = target: T1, FcγRIIb; experiment: SPR (Biacore); KD for FcγRIIaH divided by KD for FcγRIIb of the same antibody
FcγRIIb [7] = target: T1, FcγRIIb; experiment: SPR (Biacore), FcγR over captured antibody
FcγRIIa type H [8] = target: T2, FcγRIIa type H; experiment: SPR (Biacore), FcγR over captured antibody
FcγRIIa type R = target: T5, FcγRIIa type R (human, UniProt P12318 36-217); experiment: SPR (Biacore), FcγR over captured antibody
T5 construct: also called FcγRIIaR; FcgRIIaR
T5 chain: T2 sequence with H133R

FcγRIIIa type V [9] = target: T3, FcγRIIIa type V; experiment: SPR (Biacore), FcγR over captured antibody
FcγRIa [10] = target: T4, FcγRIa; experiment: SPR (Biacore), FcγR over captured antibody
FcγRIIb [11] = target: T1, FcγRIIb; experiment: SPR (Biacore), KD of IL6R-B3/IL6R-L divided by KD of the variant
[12] = target: T6, human FcRn (soluble human FcRn complexed with β2-microglobulin) (human, UniProt P61769 21-119, limits assumed); experiment: SPR, antibody captured by Protein L, human FcRn as analyte, pH 7.0, 25 C
T6 construct: also called hFcRn

mouse FcγRIII = target: T7, mouse FcγRIII (mouse, UniProt P08508 31-215); experiment: SPR, antibody captured by Protein L, mouse FcγR as analyte, pH 7.4, 25 C
T7 construct: bought; also called mFcgRIII; mFcgR III
T7 sequence (looked up): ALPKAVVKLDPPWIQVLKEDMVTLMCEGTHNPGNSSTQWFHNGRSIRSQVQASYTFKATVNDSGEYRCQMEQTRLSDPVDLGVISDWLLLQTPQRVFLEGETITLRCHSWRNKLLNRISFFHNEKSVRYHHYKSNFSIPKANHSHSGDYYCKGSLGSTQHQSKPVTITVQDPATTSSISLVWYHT

mouse FcγRIV = target: T8, mouse FcγRIV (mouse, UniProt A0A0B4J1G0 21-203); experiment: as above
T8 construct: bought; also called mFcgRIV; mFcgR IV; the vendor's purification tag not given
T8 sequence: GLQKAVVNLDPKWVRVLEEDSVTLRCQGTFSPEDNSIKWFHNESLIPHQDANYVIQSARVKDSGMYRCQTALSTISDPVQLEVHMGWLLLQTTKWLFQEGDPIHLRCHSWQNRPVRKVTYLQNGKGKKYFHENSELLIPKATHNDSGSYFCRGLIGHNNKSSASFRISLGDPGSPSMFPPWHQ

mouse FcγRI = target: T9, mouse FcγRI (mouse, UniProt P26151 25-297); experiment: as above
T9 construct: bought; also called mFcgRI; mFcgR 1
T9 sequence (looked up): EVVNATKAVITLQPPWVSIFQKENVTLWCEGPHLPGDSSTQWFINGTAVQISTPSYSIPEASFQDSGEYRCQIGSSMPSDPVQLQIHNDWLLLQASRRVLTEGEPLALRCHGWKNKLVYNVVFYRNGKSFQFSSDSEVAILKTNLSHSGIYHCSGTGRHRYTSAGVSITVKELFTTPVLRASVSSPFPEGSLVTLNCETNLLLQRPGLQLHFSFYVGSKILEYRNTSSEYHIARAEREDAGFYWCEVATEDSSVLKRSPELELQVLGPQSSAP

mouse FcγRIIb = target: T10, mouse FcγRIIb (mouse, UniProt P08101 30-207, limits assumed); experiment: as above
T10 construct: bought; also called mFcgRIIb; mFcgR IIb
T10 sequence (looked up): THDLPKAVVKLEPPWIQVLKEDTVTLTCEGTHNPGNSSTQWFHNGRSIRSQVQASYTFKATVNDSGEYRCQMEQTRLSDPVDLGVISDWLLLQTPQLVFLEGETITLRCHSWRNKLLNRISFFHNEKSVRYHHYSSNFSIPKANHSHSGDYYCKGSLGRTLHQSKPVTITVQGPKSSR

human FcγRIIa(H) = target: T11, human FcγRIIa(H) (human, UniProt P12318 36-217); experiment: SPR, pH 7.4, antibody captured by Protein L
T11 construct: also called FcgRIIaH; hFcgRIIa(H)
T11 sequence: T2 sequence

human FcγRIIb = target: T12, human FcγRIIb (human, UniProt P31994 43-217, limits assumed); experiment: SPR, pH 7.4, antibody captured by Protein L
T12 construct: also called FcgRIIb; hFcgRIIb
T12 sequence: T1 sequence

human FcγRIIa(R) = target: T13, human FcγRIIa(R) (human, UniProt P12318 36-217); experiment: SPR, pH 7.4, antibody captured by Protein L
T13 construct: also called FcgRIIaR; hFcgRIIa(R)
T13 chain: T2 sequence with H133R

human FcγRIIIa(V) = target: T14, human FcγRIIIa(V) (human, UniProt P08637 17-208, limits assumed); experiment: SPR, pH 7.4, antibody captured by Protein L
T14 construct: also called hFcgRIIIa(V); FcγRIIIa allotype V158

human FcγRIa = target: T15, human FcγRIa (human, UniProt P12314 16-292, limits assumed); experiment: SPR, pH 7.4, antibody captured by Protein L
T15 construct: also called FcgRIa; hFcgRIa
T15 sequence (P12314 16-292 limits assumed): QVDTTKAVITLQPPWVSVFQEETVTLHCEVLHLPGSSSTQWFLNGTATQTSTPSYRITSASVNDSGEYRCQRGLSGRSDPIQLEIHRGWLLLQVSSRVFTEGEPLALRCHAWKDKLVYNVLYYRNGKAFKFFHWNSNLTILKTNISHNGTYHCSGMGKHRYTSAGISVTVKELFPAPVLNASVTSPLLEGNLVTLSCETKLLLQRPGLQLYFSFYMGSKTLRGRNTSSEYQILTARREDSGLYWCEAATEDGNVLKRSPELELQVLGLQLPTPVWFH

T3 sequence (P08637 other isoform, or with tags, fused parts or gaps limits assumed): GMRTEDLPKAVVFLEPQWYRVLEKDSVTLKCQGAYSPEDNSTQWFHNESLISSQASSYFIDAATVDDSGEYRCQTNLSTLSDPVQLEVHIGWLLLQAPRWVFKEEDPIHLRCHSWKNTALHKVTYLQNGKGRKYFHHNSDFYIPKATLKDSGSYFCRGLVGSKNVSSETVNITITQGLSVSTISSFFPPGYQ
T4 sequence (P12314 16-292 limits assumed): as the sequence (P12314 16-292 limits assumed) above
T14 sequence (P08637 other isoform, or with tags, fused parts or gaps limits assumed): as the sequence (P08637 other isoform, or with tags, fused parts or gaps limits assumed) above

B1: IL6R-B3/IL6R-L (antibody, human IgG1)
heavy: not shown
light: DIQMTQSPSSLSASVGDRVTITCRASQDISSYLNWYQQKPGKAPKLLIYYTSRLHSGVPSRFSGSGSGTDFTFTISSLQPEDIATYYCQQGNTLPYTFGQGTKVEIK
notes: IgG1; IL6R-G1d with K439E (EU); also called parent polypeptide; copies: 2 + 2
- KD(IIaR)/KD(IIb) (FcγRIIb [1]): 0.3
- relative binding activity (FcγRIIb [2]): 58 % of control
- relative binding activity (FcγRIIa type H [3]): 1600 % of control
- relative binding activity (FcγRIIIa type V [4]): 3260 % of control
- relative binding activity (FcγRIa [5]): 145 % of control
- KD(IIaH)/KD(IIb) (FcγRIIb [6]): 0.2
- Kd (FcγRIIb [7]): 3100 nM
- Kd (FcγRIIa type H [8]): 770 nM
- Kd (FcγRIIa type R): 1100 nM
- Kd (FcγRIIIa type V [9]): 330 nM
- Kd (FcγRIa [10]): 0.42 nM
- KD(IIb) of the parent polypeptide/KD(IIb) of altered polypeptide (FcγRIIb [11]): 1 fold

B3: IL6R-BF648/IL6R-L (antibody, human IgG1)
heavy: not shown
light: B1 light
notes: IgG1; Fc variant of IL6R-B3; control (= 100) of the relative values; copies: 2 + 2
- KD(IIaR)/KD(IIb) (FcγRIIb [1]): 13
- relative binding activity (FcγRIIb [2]): 100 % of control
- relative binding activity (FcγRIIa type H [3]): 100 % of control
- relative binding activity (FcγRIIIa type V [4]): 100 % of control
- relative binding activity (FcγRIa [5]): 100 % of control
- KD(IIaH)/KD(IIb) (FcγRIIb [6]): 33.9
- Kd (FcγRIIb [7]): 1200 nM
- Kd (FcγRIIa type H [8]): 40000 nM
- Kd (FcγRIIa type R): 15000 nM
- Kd (FcγRIIIa type V [9]): 71000 nM
- Kd (FcγRIa [10]): 11 nM
- KD(IIb) of the parent polypeptide/KD(IIb) of altered polypeptide (FcγRIIb [11]): 2.6 fold

B5: VH3-IgG2-F890/L(WT)-CK (antibody)
heavy: QVQLQESGPGLVKPSETLSLTCAVSGHSISHDHAWSWVRQPPGEGLEWIGFISYSGITNYNPSLQGRVTISRDNSKNTLYLQMNSLRAEDTAVYYCARSLARTTAMDYWGEGTLVTVSSASTKGPSVFPLAPCSRSTSESTAALGCLVKDYFPEPVTVSWNSGALTSGVHTFPAVLQSSGLYSLSSVVTVPSSNFGTQTYTCNVDHKPSNTKVDKTVERKCCVECPPCPAPPVAGPSVFLFPPKPKDTLYISRTPEVTCVVVDVSHEDPEVQFNWYVDGVEVHNAKTKPREEQFNSTFRVVSVLTVVHQDWLNGKEYKCKVSNKGLPAPIEKTISKTKGQPREPQVYTLPPSREEMTKNQVSLTCLVKGFYPSDIAVEWESNGQPENNYKTTPPMLDSDGSFFLYSKLTVDKSRWQQGNVFSCSVMHEALHYHVTQKSLSLSP
light: not shown
notes: M252Y/N434Y/Y436V in VH3-IgG2; copies: 2 + 2
- binding amount (human FcγRIIa(H)): 204 RU
- binding amount (human FcγRIIb): 31.9 RU
- binding amount (human FcγRIIa(R)): 120 RU
- binding amount (human FcγRIIIa(V)): 28.1 RU
- binding amount (human FcγRIa): 19.7 RU

The next lines start with the values.

- KD(IIaR)/KD(IIb) (FcγRIIb [1]): 0.4
- relative binding activity (FcγRIIb [2]): 62 % of control
- relative binding activity (FcγRIIa type H [3]): 1670 % of control
- relative binding activity (FcγRIIIa type V [4]): 3350 % of control
- relative binding activity (FcγRIa [5]): 140 % of control
- KD(IIaH)/KD(IIb) (FcγRIIb [6]): 0.3
- Kd (FcγRIIb [7]): 2600 nM
- Kd (FcγRIIa type H [8]): 670 nM
- Kd (FcγRIIa type R): 1000 nM
- Kd (FcγRIIIa type V [9]): 350 nM
- Kd (FcγRIa [10]): 0.32 nM
- KD(IIb) of the parent polypeptide/KD(IIb) of altered polypeptide (FcγRIIb [11]): 1.2 fold
B2: IL6R-G1d/IL6R-L (antibody, human IgG1)
heavy: not shown
light: B1 light
notes: IgG1 (G1d constant region) antibody to human IL-6 receptor; also called IgG1 (IL6R-G1d); copies: 2 + 2

- Kd [12]: 310 nM
- BINDING AMOUNT (RU) (mouse FcγRIII): -20.3 RU
- BINDING AMOUNT (RU) (mouse FcγRIV): -3.8 RU
- BINDING AMOUNT (RU) (mouse FcγRI): 0.6 RU
- BINDING AMOUNT (RU) (mouse FcγRIIb): -4.5 RU
B4: antibody with VH3-IgG1-F821 heavy chain and L(WT)-CK light chain (antibody)
heavy: QVQLQESGPGLVKPSETLSLTCAVSGHSISHDHAWSWVRQPPGEGLEWIGFISYSGITNYNPSLQGRVTISRDNSKNTLYLQMNSLRAEDTAVYYCARSLARTTAMDYWGEGTLVTVSSASTKGPSVFPLAPSSKSTSGGTAALGCLVKDYFPEPVTVSWNSGALTSGVHTFPAVLQSSGLYSLSSVVTVPSSSLGTQTYICNVNHKPSNTKVDKKVEPKSCDKTHTCPPCPAPELRGGPKVFLFPPKPKDTLYISRTPEVTCVVVDVSHEDPEVKFNWYVDGVEVHNAKTKPREEQYNSTYRVVSVLTVLHQDWLNGKEYKCKVSNKALPAPIEKTISKAKGQPREPQVYTLPPSRDELTKNQVSLTCLVKGFYPSDIAVEWESNGQPENNYKTTPPVLDSDGSFFLYSKLTVDKSRWQQGNVFSCSVMHEALHYHYTQKSLSLSP
light: not shown
notes: L235R/S239K/M252Y/N434Y; copies: 2 + 2

- binding amount (human FcγRIIa(H)): 266 RU
- binding amount (human FcγRIIb): 55.5 RU
- binding amount (human FcγRIIa(R)): 188 RU
- binding amount (human FcγRIIIa(V)): 50.1 RU
- binding amount (human FcγRIa): 38.6 RU
B6: VH3-IgG2/L(WT)-CK (antibody)
heavy: B5 heavy with Y250M, Y432N, V434Y
light: not shown
notes: copies: 2 + 2
